Patent publication US20150376276A1 (Seagen, published 2015)

What was measured:
human NTB-A [1] = target: T1, human NTB-A (human, UniProt Q96DU3 22-332); assay: flow cytometry competition on NTB-A positive Ramos cells; competitor: AF647-labelled 11A1 at 0.0188 ug/mL; half of the partial effect, not 50% of maximum binding
T1 construct: whole, on cells; also called SLAMF6; hNTB-A
T1 sequence (looked up): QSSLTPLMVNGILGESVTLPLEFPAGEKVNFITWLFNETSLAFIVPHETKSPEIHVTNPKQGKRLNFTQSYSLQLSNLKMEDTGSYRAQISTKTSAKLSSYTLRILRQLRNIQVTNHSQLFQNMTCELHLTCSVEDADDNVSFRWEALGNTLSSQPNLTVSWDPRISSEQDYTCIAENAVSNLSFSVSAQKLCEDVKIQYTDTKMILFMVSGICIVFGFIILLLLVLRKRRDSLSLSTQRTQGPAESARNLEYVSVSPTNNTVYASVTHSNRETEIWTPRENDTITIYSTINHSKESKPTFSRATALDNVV

human NTB-A [2] = target: T1, human NTB-A; assay: flow cytometry, saturation binding of Alexa Fluor 647-labelled antibody on Ramos cells
Description: Antigen positive Ramos cells were plated at 1×10⁵ cells per well in a 96 well V-bottom plate (Thermo Scientific, Rochester, N.Y.). Three-fold serial dilutions of 2× concentrated antibodies were prepared in FACs buffer (PBS+2% fetal bovine serum+0.02% azide) and were added to the cells in duplicate. The antibody solutions were incubated with cells for 1 hour on ice, protected from light. The cells were washed twice with FACs buffer and analyzed on the LSRII flow cytometer (BD BioSciences, San Jose, Calif.). KD values were determined with GraphPad Prism software (La Jolla, Calif.).

human NTB-A [3] = target: T1, human NTB-A; assay: flow cytometry competition on NTB-A positive Ramos cells; competitor: AF647-labelled 11A1 at 0.0188 ug/mL
Excerpt: To evaluate whether an antibody competes for specific binding to human NTB-A with a mAb comprising the VH and VL domains of the 11A1 mAb (i.e., a VH domain having the amino acid sequence as shown in residues 20-135 of SEQ ID NO:1 and a VL domain having the amino acid sequence as shown in residues 21-140 of SEQ ID NO:2), a competitive binding assay as follows is used.
This assay utilizes a “reference antibody” comprising the 11A1 murine IgG1 antibody (i.e., the 11A1 VH and VL domains in the bivalent structure of a native antibody). NTB-A positive Ramos cells are plated at 2×10⁵ cells per well in a 96 well V-bottom plate (Thermo Scientific, Rochester, N.Y.). […] The antibody solutions are incubated with cells for 1 hour on ice, protected from light. The cells are washed twice with FACs buffer and analyzed on the LSRII flow cytometer (BD BioSciences, San Jose, Calif.). Data are presented as percent of maximum binding. The sample antibody “competes with” the labeled reference antibody for specific binding to NTB-A if the sample antibody reduces the reference antibody's binding to NTB-A to levels less than 45% of maximum binding (i.e., 0 to 45%) at a concentration of 10 μg/ml of unlabeled sample antibody. […]

Molecule	IC50 (read off the curve) (human NTB-A [1])	Kd (human NTB-A [2])	IC50 (read off the curve) (human NTB-A [3])
NT-7 antibody (clone: NT-7 (Biolegend #317208))	0.1 µg/mL		
26B7 murine IgG1 antibody (antibody, V domains shown, Murine IgG1; also called mAb 26B7) VH: QVQLLQPGAEVVKPGTSVKLSCKASGYNFTIYWINWVKLRPGQGLEWIGDIHPGRGNTNLNEKFKTKATLTVDTSSSTAYMQLNSLAFEDSALYYCAREDEDWYFDVWGAGTTVTVSS VL: DIQMNQSPSSLSASLGDTITITCRASQGISIWFNWYQQKSGNIPKLLIYKTSNLHTGVPPRFSGSGSGTDFTLTISSLQPEDIATYYCLQSQSYPYTFGGGTKLEIKR		0.16 nM	~0.08 µg/mL
